The values that follow come from patent publication US20120207760A1.

Common to all, as to details: remark: other sources report otherwise
For experiment [1], the target named is recombinant soluble homotrimeric HA of A/common magpie/Hong Kong/5052/07 (H5N1) (Influenza A virus A/common magpie/Hong Kong/5052/07 (H5N1)). The experiment can be described thus: microarray, BCC supernatant IgG, trimeric HA.
In experiment [2] the target is recombinant soluble homotrimeric HA of A/Common magpie/Hong Kong/5052/07 - H5N1 (Influenza A virus A/common magpie/Hong Kong/5052/2007 (H5N1)). The experiment can be described thus: micro-array; captured IgG, V5-tagged trimeric HA.
The target in experiment [3] is Hemagglutinin of influenza A/Japan/305/57 (H2N2), on inactivated whole virions (Influenza A virus A/Japan/305/1957 (H2N2)), P03451. Put plainly: ELISA, B cell culture supernatant on inactivated whole virions. A general note: In an ELISA, binding on a coated surface is turned into a signal by an enzyme label.

B1: TCN-533 (5256_A17) (antibody, V domains shown)
VH: QVQLVQSGADVKKPGSSVTVSCKASGGSFSNYGINWVRQAPGQGLEWMGGIIPLINAPNYAPKFQGRVTITADMFSNIVSLQLTSLRTDDTAVYYCARRKMTTAIDYWGQGTLVTVSS
VL: QPVLSQPPSASASLGASVTLTCTLSSGFDNYQVAWYQQRPGKGPRFVMRVGNGGNVASKGDGIPDRFSVSGSGLNRYLTIKNIQEDDESDYYCGADHGSGNNFVSPYVFGGGTKLTVL
B1: the Trimeric HA Binding: RLU in experiment [1] amounted to 44500 RLU.

B2: TCN-539 (5056_A08) (antibody, V domains shown)
VH: QVQLVESGGGVVQPGRSLRLSCAASEITFITYAMHWVRQAPGKGLEWVALISDDGSNKFYADSVKGRFTISRDNSKNTLYLQMNSLRAEDTAAYYCAREGVYFDSGTYRGYFDYWGQETLVTVSS
VL: EIVLTQSPATLSLSPGERATLSCRASQSVSSYLAWYQQKPGQAPRLLIYDASNRATGIPARFSGSGSGTDFTLTISSLEPEDFAVYYCQQRSHWPPITFGQGTRLEIK
B2: in experiment [2], the Trimeric HA Binding: RLU came to 1440 RLU.

B3: TCN-551 (5243_D01) (antibody, V domains shown)
VH: EVQLVQSGSEVKKPGESLKISCKGSGYSFSNYWIGWVRHMPGKGLEWMGIIYPGDSDTRYSPSFQGQVTMSADKSSSTVYLQWSSLKASDTAIYYCARRGGHSFGYGSGGDTHSEFDSWGQGTLVTVSS
VL: QSVLTQSPSVSAAPGQKVTISCSGSDSNIGDYFVCWYQHLPGKPPQLLIYENNKRPSGIPDRFSGSKSGTSATLGITGIQTGDEADYYCATWDGSLSAWVFGGGTKLTVL
Take B3: the OD450 in experiment [3] stood at 0.19 OD450.

B4: TCN-542 (5079_A16) (antibody, V domains shown)
VH: QVQLQESGPGLVKPSQTLSLTCTVSGGSISSGNYYWNWVRQHPGKGLEWIGYIYYRGSTFYNPSLKSRVTISIDTSKNQFSLRLSSVTAADTAVYYCAKDTRSSLDNYQYGMDVWGQGTTVTVSS
VL: QTVVTQEPSLTVSPGGTVTLTCASSTGAVTSSYFPNWFQQKPGQAPRPLIYSTTIRHSWTPARFSGSLLGGKAALTLSGVQPEDEADYYCLLYSGGDPVAFGGGTKLTVL
Consider B4, for which the Trimeric HA Binding: RLU in experiment [2] amounted to 1670 RLU.
